T1: Human B7H3 antigen for detection (SinoBiological cat #11188-H08H) (human, UniProt Q5ZPR3 29-461)
T1 construct: Bought antigen
T1 sequence: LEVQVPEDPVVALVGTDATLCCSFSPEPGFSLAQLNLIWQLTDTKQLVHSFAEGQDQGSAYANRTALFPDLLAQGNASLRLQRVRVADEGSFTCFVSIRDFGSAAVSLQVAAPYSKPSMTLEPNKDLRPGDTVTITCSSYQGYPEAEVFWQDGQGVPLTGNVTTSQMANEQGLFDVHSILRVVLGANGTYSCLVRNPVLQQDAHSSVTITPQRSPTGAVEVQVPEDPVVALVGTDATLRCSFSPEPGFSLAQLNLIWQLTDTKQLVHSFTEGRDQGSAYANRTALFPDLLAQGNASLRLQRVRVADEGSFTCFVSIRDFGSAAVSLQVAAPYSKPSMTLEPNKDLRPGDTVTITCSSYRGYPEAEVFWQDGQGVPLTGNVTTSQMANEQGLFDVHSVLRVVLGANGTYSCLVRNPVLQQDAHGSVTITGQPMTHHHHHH

T2: Monkey B7H3 antigen for detection (SinoBiological cat #90806-C08H) (monkey (cyno))
T2 construct: Bought antigen; also called monkey (cyno) B7H3
T2 chain: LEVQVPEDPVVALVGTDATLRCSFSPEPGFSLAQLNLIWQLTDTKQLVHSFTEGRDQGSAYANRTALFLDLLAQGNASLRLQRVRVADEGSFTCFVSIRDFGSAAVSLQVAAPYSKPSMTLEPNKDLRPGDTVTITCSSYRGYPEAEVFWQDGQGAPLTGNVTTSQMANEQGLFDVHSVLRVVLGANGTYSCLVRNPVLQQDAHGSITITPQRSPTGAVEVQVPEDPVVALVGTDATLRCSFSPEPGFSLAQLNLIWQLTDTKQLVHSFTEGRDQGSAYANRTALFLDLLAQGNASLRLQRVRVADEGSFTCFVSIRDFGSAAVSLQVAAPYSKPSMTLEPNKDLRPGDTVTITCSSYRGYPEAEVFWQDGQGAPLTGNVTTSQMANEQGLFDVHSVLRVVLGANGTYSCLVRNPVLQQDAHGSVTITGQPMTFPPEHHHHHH

T3: human B7H3 on the cell surface (A498, CT26/hB7H3, U87, Detroit562 cells) (human, UniProt Q5ZPR3 29-534)
T3 construct: Endogenous on A498, U87 and Detroit562 tumor cells, over-expressed on CT26/hB7H3
T3 sequence: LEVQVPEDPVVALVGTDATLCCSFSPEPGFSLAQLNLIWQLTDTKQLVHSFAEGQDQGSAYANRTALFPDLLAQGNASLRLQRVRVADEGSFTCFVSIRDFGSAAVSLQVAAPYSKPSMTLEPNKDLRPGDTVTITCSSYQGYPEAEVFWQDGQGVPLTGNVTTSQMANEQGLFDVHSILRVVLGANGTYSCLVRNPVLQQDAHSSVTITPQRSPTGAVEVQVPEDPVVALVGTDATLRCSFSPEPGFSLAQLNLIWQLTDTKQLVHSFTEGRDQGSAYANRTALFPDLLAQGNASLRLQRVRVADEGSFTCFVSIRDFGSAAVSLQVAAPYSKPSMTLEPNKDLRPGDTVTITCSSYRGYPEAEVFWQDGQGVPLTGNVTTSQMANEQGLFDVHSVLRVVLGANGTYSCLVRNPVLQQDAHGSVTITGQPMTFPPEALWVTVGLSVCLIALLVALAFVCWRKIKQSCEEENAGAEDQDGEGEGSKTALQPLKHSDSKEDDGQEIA


How the values were obtained:
[1] = target: T4, Monkey CD3 antigen for detection (Acro biosystem cat #CDD-C52W4); monkey CD3 epsilon-His and monkey CD3 … (monkey (cyno), UniProt Q95LI5 22-117; Q95LI8 22-105); assay: Biacore T200 SPR, bispecific antibody captured, antigen as analyte, 1:1 Langmuir fit
T4 construct: Bought antigen
T4 sequence (Q95LI5 other isoform, or with tags, fused parts or gaps mutant, chain 1 of 2): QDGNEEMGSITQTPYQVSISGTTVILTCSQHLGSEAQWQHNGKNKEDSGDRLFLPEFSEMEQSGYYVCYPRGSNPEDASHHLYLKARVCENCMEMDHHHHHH
T4 sequence (Q95LI8 other isoform, or with tags, fused parts or gaps mutant, chain 2 of 2): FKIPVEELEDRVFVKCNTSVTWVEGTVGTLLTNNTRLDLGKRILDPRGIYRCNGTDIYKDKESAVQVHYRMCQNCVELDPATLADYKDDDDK
Protocol: (§1) The detection of antibody affinity to B7H3 and CD3 was performed in the form of capture antibody. BsAb was captured by CM5 biosensor chip (Cat. #BR-1005-30, GE) or Protein A (Cat. #29127556, GE) biosensor chip coupled with Anti-Human IgG Antibody (Cat. #BR-1008-39, Lot. #10260416, GE), and then each antigen flowed through the surface of the chip. The reaction signals were detected in real time with the Biacore T200 instrument to obtain the binding and dissociation curves. After the dissociation of each experimental cycle was completed, the chip was washed and regenerated with regeneration buffer Glycine1.5 (Cat #BR100354, GE) or 3 M MgCl₂ (from Human antibody capture kit, Cat. #BR100839, GE). The data were fitted with the (1:1) Langmuir model using GE Biacore T200 Evaluation version 3.0 software, and the affinity values were obtained.

[2] = target: T1, Human B7H3 antigen for detection …; assay: as above
Protocol: as §1

[3] = target: T5, Human CD3 antigen for detection (SinoBiological cat #CT038-H2508H); human CD3 epsilon-His and human CD3 … (human, UniProt P07766 23-126; P04234 22-105); assay: as above
T5 construct: Bought antigen
T5 sequence (P07766 other isoform, or with tags, fused parts or gaps H2508H H2508H, chain 1 of 2): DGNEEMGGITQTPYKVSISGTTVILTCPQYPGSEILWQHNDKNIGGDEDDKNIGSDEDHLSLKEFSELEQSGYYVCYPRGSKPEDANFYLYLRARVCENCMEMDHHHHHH
T5 sequence (P04234 other isoform, or with tags, fused parts or gaps H2508H H2508H, chain 2 of 2): as the sequence (Q95LI8 other isoform, or with tags, fused parts or gaps mutant, chain 2 of 2) above, with V5I, K15N, V20I, T32S, N33D, N34I, A64T, N74S, L83V counted along it
Protocol: as §1

[4] = target: T2, Monkey B7H3 antigen for detection …; assay: as above
Protocol: as §1

[5] = target: human CD3 on the cell surface (Jurkat recombinant cells; T cells of PBMC) (human, UniProt P07766 23-207; P04234 22-171); assay: FACS on Jurkat recombinant cells expressing CD3, APC anti-human IgG Fc detection, geometric mean fluorescence
Sequence of human CD3 on the cell surface (Jurkat recombinant cells; T cells of PBMC) (P07766 23-207, chain 1 of 2): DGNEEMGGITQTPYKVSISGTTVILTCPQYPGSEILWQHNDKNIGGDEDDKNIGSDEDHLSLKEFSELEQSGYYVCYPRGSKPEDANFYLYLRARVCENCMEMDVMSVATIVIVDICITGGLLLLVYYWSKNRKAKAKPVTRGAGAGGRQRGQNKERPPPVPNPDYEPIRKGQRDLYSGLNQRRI
Sequence of human CD3 on the cell surface (Jurkat recombinant cells; T cells of PBMC) (P04234 22-171, chain 2 of 2): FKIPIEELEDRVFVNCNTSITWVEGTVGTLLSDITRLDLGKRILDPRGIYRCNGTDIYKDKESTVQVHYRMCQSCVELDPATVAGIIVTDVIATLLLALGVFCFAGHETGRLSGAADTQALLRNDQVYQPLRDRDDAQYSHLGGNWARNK
Protocol: (§2) The ability of bispecific antibodies to bind to cell surface antigens was detected by FACS method.
(§3) FACS buffer (98% PBS, 2% FBS) was added into a 96-well U-shaped bottom plate (corning, 3795) to resuspend the cells, the serially diluted antibodies were added, incubated at 4° C. for 1 hour, and the plate was washed with FACS buffer twice. Then APC anti-human IgG Fc Antibody (biolegend, Cat #409306, dilution at 1:50) was added into each well, incubated at 4° C. for 30 minutes, washed twice, the cells were resuspended in FACS buffer, and finally the fluorescence signal values were read by FACS CantoII (BD).

[6] = target: T3, human B7H3 on the cell surface (A498, …); assay: FACS on CT26/hB7H3 cells over-expressing human B7H3, APC anti-human IgG Fc detection, geometric mean fluorescence
Protocol: as §2, §3

[7] = target: T3, human B7H3 on the cell surface (A498, …); assay: cell-based or functional assay
[8] = target: T3, human B7H3 on the cell surface (A498, …); assay: FACS on A498 cells expressing human B7H3, APC anti-human IgG Fc detection, geometric mean fluorescence
Protocol: as §2, §3

[9] = target: T5, Human CD3 antigen for detection …; assay: Biacore T200 SPR, bispecific antibody captured, CD3 antigen as analyte, 1:1 Langmuir fit
Protocol: as §1

Binder | Kd [1] | Kd [2] | Kd [3] | Kd [4] | EC50 (read off the curve) [5] | EC50 (read off the curve) [6] | Emax (%), PBMC-mediated killing of A498 cells (B7H3 high) [7] | Emax (%), PBMC-mediated killing of Detroit562 cells (B7H3 low) [7] | Emax (%), PBMC-mediated killing of U87 cells (B7H3 intermediate) [7] | IC50 (nM), PBMC-mediated killing of A498 cells (B7H3 high) [7] | IC50 (nM), PBMC-mediated killing of Detroit562 cells (B7H3 low) [7] | IC50 (nM), PBMC-mediated killing of U87 cells (B7H3 intermediate) [7] | EC50 (read off the curve) [8] | Kd [9]
MGD009 (positive control bispecific antibody, three chains) (bispecific antibody, B7H3 monovalent B7H3xCD3 DART-Fc) chain 1: DIQLTQSPSFLSASVGDRVTITCKASQNVDTNVAWYQQKPGKAPKALIYSASYRYSGVPSRFSGSGSGTDFTLTISSLQPEDFATYYCQQYNNYPFTFGQGTKLEIKGGGSGGGGEVQLVESGGGLVQPGGSLRLSCAASGFTFSTYAMNWVRQAPGKGLEWVGRIRSKYNNYATYYADSVKDRFTISRDDSKNSLYLQMNSLKTEDTAVYYCVRHGNFGNSYVSWFAYWGQGTLVTVSSGGCGGGEVAALEKEVAALEKEVAALEKEVAALEKGGGDKTHTCPPCPAPEAAGGPSVFLFPPKPKDTLMISRTPEVTCVVVDVSHEDPEVKFNWYVDGVEVHNAKTKPREEQYNSTYRVVSVLTVLHQDWLNGKEYKCKVSNKALPAPIEKTISKAKGQPREPQVYTLPPSREEMTKNQVSLWCLVKGFYPSDIAVEWESNGQPENNYKTTPPVLDSDGSFFLYSKLTVDKSRWQQGNVFSCSVMHEALHNHYTQKSLSLSPGK chain 2: QAVVTQEPSLTVSPGGTVTLTCRSSTGAVTTSNYANWVQQKPGQAPRGLIGGTNKRAPWTPARFSGSLLGGKAALTITGAQAEDEADYYCALWYSNLWVFGGGTKLTVLGGGGSGGGGEVQLVESGGGLVQPGGSLRLSCAASGFTFSSFGMHWVRQAPGKGLEWVAYISSDSSAIYYADTVKGRFTISRDNAKNSLYLQMNSLRDEDTAVYYCGRGRENIYYGSRLDYWGQGTTVTVSSGGCGGGKVAALKEKVAALKEKVAALKEKVAALKE chain 3: not shown | 4.94 nM | 1.96 nM | 78.1 nM | 2.65 nM | ~100 nM | ~10 nM | – | – | – | – | – | – | – | –
bispecific antibody 118 (AFF 6-3) (bispecific antibody, B7H3 bivalent CD3-B7H3 bispecific antibody, CD3 VH HRH-3, CD3 scFv at the N-terminus) chain 1: not shown chain 2: QTVVTQEPSFSVSPGGTVTLTCGLSSGSVSTSHYPSWYQQTPGQAPRMLIYNTNTRSSGVPDRFSGSILGNKAALTITGAQADDESDYYCAIHVDRDIWVFGGGTKLTVLGGGGSGGGGSGGGGSQVQLVQSGGGVVQPGTSLRLSCAASGFIFSSSAMHWVRQAPGKGLEWVAVISYDGSNKYYVDSVKGRFTISRDNSKNTLYLQMNSLRAEDTAVYYCARSARLYASFDYWGQGALVTVSSGGGDKTHTCPPCPAPEAAGGPSVFLFPPKPKDTLMISRTPEVTCVVVDVSHEDPEVKFNWYVDGVEVHNAKTKPREEQYNSTYRVVSVLTVLHQDWLNGKEYKCKVSNKALPAPIEKTISKAKGQPREPQVCTLPPSREEMTKNQVSLSCAVKGFYPSDIAVEWESNGQPENNYKTTPPVLDSDGSFFLVSKLTVDKSRWQQGNVFSCSVMHEALHNHYTQKSLSLSPGK | 1.59 nM | 5.33 nM | 66.1 nM | 7.31 nM | ~100 nM | ~1 nM | 65.9% | 39.2% | 67.2% | 0.34 nM | 14.5 nM | 2.4 nM | – | –
bispecific antibody 127 (AFF3-3) (bispecific antibody, B7H3 bivalent CD3-B7H3 bispecific antibody, CD3 VH HRH-3) chain 1: not shown chain 2: QTVVTQEPSFSVSPGGTVTLTCGLSSGSVSTSHYPSWYQQTPGQAPRMLIYNTNTRSSGVPDRFSGSILGNKAALTITGAQADDESDYYCAIHVDRDIWVFGGGTKLTVLGGGGSGGGGSGGGGSQVQLVQSGGGVVQPGTSLRLSCAASGFIFSSSAMHWVRQAPGKGLEWVAVISYDGSNKYYVDSVKGRFTISRDNSKNTLYLQMNSLRAEDTAVYYCARSARLYASFDYWGQGALVTVSSGGGDKTHTCPPCPAPEAAGGPSVFLFPPKPKDTLMISRTPEVTCVVVDVSHEDPEVKFNWYVDGVEVHNAKTKPREEQYNSTYRVVSVLTVLHQDWLNGKEYKCKVSNKALPAPIEKTISKAKGQPREPQVCTLPPSREEMTKNQVSLSCAVKGFYPSDIAVEWESNGQPENNYKTTPPVLDSDGSFFLVSKLTVDKSRWQQGNVFSCSVMHEALHNHYTQKSLSLSPGK | 1.24 nM | 4.29 nM | 84.7 nM | 5.61 nM | – | ~2 nM | 67.5% | 26.5% | 69.5% | 2.4 nM | 15.8 nM | 8.2 nM | ~40 nM | 97.2 nM
bispecific antibody 132 (AFF3-3SS) (bispecific antibody) chain 1: not shown chain 2: QTVVTQEPSFSVSPGGTVTLTCGLSSGSVSTSHYPSWYQQTPGQAPRMLIYNTNTRSSGVPDRFSGSILGNKAALTITGAQADDESDYYCAIHVDRDIWVFGGGTKLTVLGGGGSGGGGSGGGGSQVQLVQSGGGVVQPGTSLRLSCAASGFIFSSSAMHWVRQAPGKGLEWVAVISYDGSNKYYVDSVKGRFTISRDNSKNTLYLQMNSLRAEDTAVYYCARSARLYASFDYWGQGALVTVSSGGGDKTHTCPPCPAPEAAGGPSVFLFPPKPKDTLMISRTPEVTCVVVDVSHEDPEVKFNWYVDGVEVHNAKTKPREEQYNSTYRVVSVLTVLHQDWLNGKEYKCKVSNKALPAPIEKTISKAKGQPREPQVCTLPPSREEMTKNQVSLSCAVKGFYPSDIAVEWESNGQPENNYKTTPPVLDSDGSFFLVSKLTVDKSRWQQGNVFSCSVMHEALHNHYTQKSLSLSPGK | 0.813 nM | 5.35 nM | 85.3 nM | 6.9 nM | ~300 nM | ~2 nM | 66.4% | 15.2% | 67.6% | 2.94 nM | 15.7 nM | 11.9 nM | ~30 nM | –

From US20220242953A1 (JIANGSU HENGRUI MEDICINE, published 2022)
